Source: US5741689A, “Methods to inhibit serine kinase activity and to alter intersubunit binding activity of phosphatidylinositol 3-kinase, and serine kinase active sequence of the same” (Ludwig Institute for Cancer Research, priority 1994, dated 1998)

Experiments:
[1] = target: p110 subunit of PI3-kinase (bovine, wild type, recombinant) (bovine) (UniProt P32871); assay: GST fusion on glutathione-sepharose, p110 Sf9 lysate, bound PI3-kinase activity
[2] = target: T1, PI3-kinase p110 subunit alone (wild type, recombinant, expressed in Sf9 cells) (Bos taurus, UniProt P32871); assay: in vitro PI3-kinase assay on anti-p110 immunoprecipitates, p110 alone; format: biochemical, bovine
T1 construct: made in house; host or cells: Sf9 insect cells (baculovirus)
T1 sequence (P32871 whole entry): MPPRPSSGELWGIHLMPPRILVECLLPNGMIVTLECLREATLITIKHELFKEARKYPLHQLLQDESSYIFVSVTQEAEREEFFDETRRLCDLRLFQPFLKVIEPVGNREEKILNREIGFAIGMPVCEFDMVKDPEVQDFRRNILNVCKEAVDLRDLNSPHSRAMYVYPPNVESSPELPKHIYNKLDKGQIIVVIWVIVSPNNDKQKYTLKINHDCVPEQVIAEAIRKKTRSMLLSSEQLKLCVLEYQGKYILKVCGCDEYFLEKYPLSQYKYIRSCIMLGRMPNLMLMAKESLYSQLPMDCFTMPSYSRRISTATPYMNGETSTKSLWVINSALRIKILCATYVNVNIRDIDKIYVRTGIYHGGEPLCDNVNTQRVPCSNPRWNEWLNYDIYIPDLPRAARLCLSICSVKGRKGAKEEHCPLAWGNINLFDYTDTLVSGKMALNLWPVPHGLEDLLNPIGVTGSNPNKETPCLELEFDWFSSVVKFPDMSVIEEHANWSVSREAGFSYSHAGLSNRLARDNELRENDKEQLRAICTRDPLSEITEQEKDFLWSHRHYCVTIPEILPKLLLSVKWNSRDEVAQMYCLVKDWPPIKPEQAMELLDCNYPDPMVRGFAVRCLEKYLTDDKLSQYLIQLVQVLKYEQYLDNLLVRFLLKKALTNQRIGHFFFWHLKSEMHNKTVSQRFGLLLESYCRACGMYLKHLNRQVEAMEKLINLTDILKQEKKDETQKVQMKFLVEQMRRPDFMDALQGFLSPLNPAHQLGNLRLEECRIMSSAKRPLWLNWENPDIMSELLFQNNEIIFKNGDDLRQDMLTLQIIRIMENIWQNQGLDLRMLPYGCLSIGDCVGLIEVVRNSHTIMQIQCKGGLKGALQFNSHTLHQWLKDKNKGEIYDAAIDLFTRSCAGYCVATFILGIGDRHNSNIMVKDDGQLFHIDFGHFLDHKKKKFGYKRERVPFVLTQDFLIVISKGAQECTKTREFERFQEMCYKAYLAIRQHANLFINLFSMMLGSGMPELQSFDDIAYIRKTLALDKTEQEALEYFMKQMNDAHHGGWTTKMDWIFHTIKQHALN
Experimental: (§1) Insect cells were infected with p85α/p110 complex, (see FIG. 17, A, lanes 1-6) or p110 alone, (see FIG. 17, B, lanes 7-12). The immunoprecipitates were washed twice with PI3-kinase buffer (20 mM Tris-HCl, pH 7.5, 100 mM NaCl, 0.5 mM EDTA). The samples were untreated or treated with 0.3 mM 5,5'-Dithio-bis [2-nitrobenzoic acid] (Nbs2) for 15 minutes at 22° C. Excess reagent was removed by washing the complexes three times with PI3-kinase buffer and the immunoprecipitate was then incubated for 15 minutes at 22° C. with increasing concentrations of dithiothreitol (DTT). A control sample was incubated with DTT alone at a final concentration of 300 mM. The remaining DTT was removed by washing with lysis buffer and the immunoprecipitates were subjected to PI3-kinase assays or to in vitro protein kinase assays described below.
(§2) The experiment was carried out and the experimental results set forth in FIG. 17, A. In vitro PI3-kinase assays were performed on anti-p110 immunoprecipitates of these cells that had been treated as follows: untreated (see FIG. 17, A, lane 1 and 7); 300 mM DTT (lanes 2 and 8); treated with 0.3 mM Nbs2 (lanes 3 and 9); immunoprecipitates pretreated with 0.3 mM Nbs2 incubated with 3 mM DTT (lanes 4 and 10), 30 mM DTT (lanes 5 and 11); 300 mM DTT (lanes 6 and 12).

[3] = target: T2, PI3-kinase p85α/p110 complex (wild type, recombinant, expressed in Sf9 cells) (Bos taurus, UniProt P32871); assay: in vitro PI3-kinase assay on anti-p110 immunoprecipitates, p85α/p110 complex; format: biochemical, bovine
T2 construct: made in house; host or cells: Sf9 insect cells (baculovirus co-infection)
T2 sequence (P32871 whole entry): as above
T2 sequence (P23727 whole entry partner): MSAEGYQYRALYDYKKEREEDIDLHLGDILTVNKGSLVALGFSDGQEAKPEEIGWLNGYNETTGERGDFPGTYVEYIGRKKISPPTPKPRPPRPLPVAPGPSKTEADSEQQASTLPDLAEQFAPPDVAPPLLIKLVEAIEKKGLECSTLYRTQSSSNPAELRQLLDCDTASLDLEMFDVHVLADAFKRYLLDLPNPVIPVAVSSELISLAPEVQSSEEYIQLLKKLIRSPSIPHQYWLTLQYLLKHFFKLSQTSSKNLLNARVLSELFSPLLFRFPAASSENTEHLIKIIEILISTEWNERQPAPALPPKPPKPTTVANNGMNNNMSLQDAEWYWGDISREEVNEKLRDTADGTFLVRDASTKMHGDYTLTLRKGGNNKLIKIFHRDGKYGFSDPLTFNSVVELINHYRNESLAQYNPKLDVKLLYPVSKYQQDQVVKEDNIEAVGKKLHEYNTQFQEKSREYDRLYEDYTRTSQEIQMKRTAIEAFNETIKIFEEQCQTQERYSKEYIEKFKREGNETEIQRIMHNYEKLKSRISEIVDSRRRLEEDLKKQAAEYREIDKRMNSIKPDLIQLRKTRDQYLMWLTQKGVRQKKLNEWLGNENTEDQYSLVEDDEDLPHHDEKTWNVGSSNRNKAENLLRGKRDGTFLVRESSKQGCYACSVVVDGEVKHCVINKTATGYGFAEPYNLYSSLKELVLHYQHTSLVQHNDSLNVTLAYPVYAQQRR
Experimental: as §1, §2

[4] = target: T3, PI3-kinase p85α/p110 complex (wild type p110, recombinant, expressed in Sf9 cells), protein-serine kinase activity (Bos taurus, UniProt P32871); assay: in vitro protein-serine kinase assay (phosphorylation of p85α) on anti-p110 immunoprecipitates of p85α/p110; format: biochemical, bovine; conditions: DTT alone, final concentration 300 mM; FIG. 17 B lane 2
T3 construct: made in house; host or cells: Sf9 insect cells (baculovirus co-infection)
T3 sequence (P32871 whole entry): as the sequence (P32871 whole entry) above
T3 sequence (P23727 whole entry partner): as the sequence (P23727 whole entry partner) above
Experimental: Anti-p110 immunoprecipitates of p85α/p110 were used to study the kinetics of phosphorylation. The Km (ATP) for the phosphorylation of p85α was measured as approximately 4 μM. The stoichiometry of phosphorylation of p85α was then measured in the presence of excess ATP (50 μM). Approximately 0.9 mol of phosphate was incorporated into one mol of p85α protein.
A further experiment to determine in vitro kinase activity with treatment of Nbs2 and DTT was also conducted. Lysates of Sf9 cells that had been coinfected with p85α/p110 baculoviruses were also treated as follows: the lysates were immunoprecipitated with anti-p110 antibodies and treated as follows: untreated (see FIG. 17, B, lane 1); 300 mM DTT (lane 2); 0.3 mM Nbs2 (lane 3); pretreated with 0.3 mM Nbs2 and then incubated with 3 mM DTT, 30 mM DTT, 300 mM DTT (lanes 4, 5, 6 respectively). Samples were then subjected to in vitro kinase assays and analysis by SDS-PAGE was conducted. Phosphorylated proteins were visualized by autoradiography.
The p110 protein was immunoprecipitated from insect cells, and equal amounts of each GST fusion protein or the GST protein alone, were mixed with p110 and the proteins were allowed to phosphorylate in vitro. […] Phosphorylated proteins were analyzed by SDS-PAGE and autoradiography.

[5] = target: p85α subunit of PI3-kinase (bovine, full length, recombinant) (bovine) (UniProt P23727)
[6] = target: p85β subunit of PI3-kinase (bovine, full length, recombinant) (bovine, UniProt P23726); assay: GST-p110 fusion pull-down from Sf9 lysate expressing p85β
[7] = target: p85α subunit of PI3-kinase (bovine, full length, recombinant) (bovine, UniProt P23727); assay: GST-p110 fusion pull-down from Sf9 lysate expressing p85α
[8] = target: p110 subunit of PI3-kinase (bovine, wild type, recombinant) (bovine, UniProt P32871); assay: GST fusion on glutathione-sepharose, p110 Sf9 lysate, bound PI3-kinase activity
Experimental: GST fusion proteins of the various subdomains of p85α were constructed and immobilized on glutathione-sepharose beads, See FIG. 2, A. These proteins were used for affinity analysis with cell lysates prepared from Sf9 cells infected with a recombinant baculovirus expressing p110. The complexes were washed and subjected to PI3-kinase activity. GST alone, and GST p85α bound to glutathione-sepharose beads incubated with wild-type lysate were used as controls.

Row | binding result [6] | binding result [7] | Molecule | further results
1 |  |  | GST-85βΔ486-516 (from UniProt P23726) | percent of the PI3-kinase activity bound as compared to wild type GSTp85β [1]: 65%
2 |  |  | O[C@H](CS)[C@H](O)CS (racemic) [DTT, dithiothreitol] | activation of PI3-kinase activity ([2]; DTT alone, final concentration 300 mM, FIG. 17 A lane 8): slight activation; activation of PI3-kinase activity ([3]; DTT alone, final concentration 300 mM, FIG. 17 A lane 2): slight activation; activation of protein serine kinase activity [4]: slight activation
3 |  |  | p110 subunit of PI3-kinase (bovine, wild type, recombinant) (from UniProt P32871) (enzyme) | stoichiometry of phosphorylation of p85α, in vitro protein kinase assay (mol of phosphate per mol of p85α) [5]: 0.9
4 |  |  | O=C(O)c1cc(SSc2ccc([N+](=O)[O-])c(C(=O)O)c2)ccc1[N+](=O)[O-] [Nbs2, 5,5'-Dithio-bis [2-nitrobenzoic acid]] | inhibition at 300 µM ([2]; 0.25 h, 0.3 mM Nbs2, 15 minutes at 22° C, FIG. 17 A lane 9, read-out: loss of PI3-kinase activity): ~95%; inhibition at 300 µM ([3]; 0.25 h, 0.3 mM Nbs2, 15 minutes at 22° C, FIG. 17 A lane 3, read-out: loss of PI3-kinase activity): ~95%
5 |  |  | GST-85βΔ445-469 (from UniProt P23726) | percent of the PI3-kinase activity bound as compared to wild type GSTp85β [1]: 65%
6 | no binding | no binding | MPPRPSSGELWGIHLMPPRILVECLLPNGMIVTLE (other) [GST-p110 fusion protein p110-1.6 (amino acids 1-35)] | 
7 |  |  | GSTp85β(486-724) (other) IFEEQGQTQEKCSKEYLERFRREGNEKEMQRILLNSERLKSRIAEIHESRTKLEQELRAQASDNREIDKRMNSLKPDLMQLRKIRDQYLVWLTQKGARQKKINEWLGIKNETEDQYSLMEDEDDLPHHEERTWYVGKINRTQAEEMLSGKRDGTFLIRESSQRGCYACSVVVDGDTKHCVIYRTATGFGFAEPYNLYGSLKELVLHYQHASLVQHNDALTVTLAHPVRAPGPGPPPAAR | binding result [8]: no binding
8 |  |  | GST fusion of the SH3 domain of p85α (amino acids 1-86) (other) MSAEGYQYRALYDYKKEREEDIDLHLGDILTVNKGSLVALGFSDGQEAKPEEIGWLNGYNETTGERGDFPGTYVEYIGRKKISPPT | binding result [8]: no binding
9 | no binding | no binding | GST-p110 fusion protein p110-6 (amino acids 760-1069) (other) QLGNLRLEECRIMSSAKRPLWLNWENPDIMSELLFQNNEIIFKNGDDLRQDMLTLQIIRIMENIWQNQGLDLRMLPYGCLSIGDCVGLIEVVRNSHTIMQIQCKGGLKGALQFNSHTLHQWLKDKNKGEIYDAAIDLFTRSCAGYCVATFILGIGDRHNSNIMVKDDGQLFHIDFGHFLDHKKKKFGYKRERVPFVLTQDFLIVISKGAQECTKTREFERFQEMCYKAYLAIRQHANLFINLFSMMLGSGMPELQSFDDIAYIRKTLALDKTEQEALEYFMKQMNDAHHGGWTTKMDWIFHTIKQHALN | 
10 |  |  | GSTp85β(516-724) (other) RILLNSERLKSRIAEIHESRTKLEQELRAQASDNREIDKRMNSLKPDLMQLRKIRDQYLVWLTQKGARQKKINEWLGIKNETEDQYSLMEDEDDLPHHEERTWYVGKINRTQAEEMLSGKRDGTFLIRESSQRGCYACSVVVDGDTKHCVIYRTATGFGFAEPYNLYGSLKELVLHYQHASLVQHNDALTVTLAHPVRAPGPGPPPAAR | binding result [8]: no binding
11 | no binding | no binding | MPPRPSSGELWGIHLMPPRILVECLLPNGMIVTLECLREATLITIKHEL (other) [GST-p110 fusion protein p110-1.1 (amino acids 1-49)] | 
12 | no binding | no binding | GST-p110 fusion protein p110-1.2 (amino acids 1-81) (other) MPPRPSSGELWGIHLMPPRILVECLLPNGMIVTLECLREATLITIKHELFKEARKYPLHQLLQDESSYIFVSVTQEAEREE | 
13 | no binding | no binding | GST-p110 fusion protein p110-1.7 (amino acids 37-128) (other) LREATLITIKHELFKEARKYPLHQLLQDESSYIFVSVTQEAEREEFFDETRRLCDLRLFQPFLKVIEPVGNREEKILNREIGFAIGMPVCEF | 
14 | no binding | no binding | GST-p110 fusion protein p110-1.4 (amino acids 20-81) (other) ILVECLLPNGMIVTLECLREATLITIKHELFKEARKYPLHQLLQDESSYIFVSVTQEAEREE | 
15 | no binding | no binding | GST-p110 fusion protein p110-5 (amino acids 760-960) (other) QLGNLRLEECRIMSSAKRPLWLNWENPDIMSELLFQNNEIIFKNGDDLRQDMLTLQIIRIMENIWQNQGLDLRMLPYGCLSIGDCVGLIEVVRNSHTIMQIQCKGGLKGALQFNSHTLHQWLKDKNKGEIYDAAIDLFTRSCAGYCVATFILGIGDRHNSNIMVKDDGQLFHIDFGHFLDHKKKKFGYKRERVPFVLTQDF | 
16 | no binding | no binding | GST-p110 fusion protein p110-4 (amino acids 601-960) (other) LLDCNYPDPMVRGFAVRCLEKYLTDDKLSQYLIQLVQVLKYEQYLDNLLVRFLLKKALTNQRIGHFFFWHLKSEMHNKTVSQRFGLLLESYCRACGMYLKHLNRQVEAMEKLINLTDILKQEKKDETQKVQMKFLVEQMRRPDFMDALQGFLSPLNPAHQLGNLRLEECRIMSSAKRPLWLNWENPDIMSELLFQNNEIIFKNGDDLRQDMLTLQIIRIMENIWQNQGLDLRMLPYGCLSIGDCVGLIEVVRNSHTIMQIQCKGGLKGALQFNSHTLHQWLKDKNKGEIYDAAIDLFTRSCAGYCVATFILGIGDRHNSNIMVKDDGQLFHIDFGHFLDHKKKKFGYKRERVPFVLTQDF | 
17 | no binding | no binding | GST-p110 fusion protein p110-3 (amino acids 577-1068) (other) RDEVAQMYCLVKDWPPIKPEQAMELLDCNYPDPMVRGFAVRCLEKYLTDDKLSQYLIQLVQVLKYEQYLDNLLVRFLLKKALTNQRIGHFFFWHLKSEMHNKTVSQRFGLLLESYCRACGMYLKHLNRQVEAMEKLINLTDILKQEKKDETQKVQMKFLVEQMRRPDFMDALQGFLSPLNPAHQLGNLRLEECRIMSSAKRPLWLNWENPDIMSELLFQNNEIIFKNGDDLRQDMLTLQIIRIMENIWQNQGLDLRMLPYGCLSIGDCVGLIEVVRNSHTIMQIQCKGGLKGALQFNSHTLHQWLKDKNKGEIYDAAIDLFTRSCAGYCVATFILGIGDRHNSNIMVKDDGQLFHIDFGHFLDHKKKKFGYKRERVPFVLTQDFLIVISKGAQECTKTREFERFQEMCYKAYLAIRQHANLFINLFSMMLGSGMPELQSFDDIAYIRKTLALDKTEQEALEYFMKQMNDAHHGGWTTKMDWIFHTIKQHALN | 
18 |  |  | GST fusion of the BCR homology region of p85α (amino acids 125-322) (other) PDVAPPLLIKLVEAIEKKGLECSTLYRTQSSSNPAELRQLLDCDTASLDLEMFDVHVLADAFKRYLLDLPNPVIPVAVSSELISLAPEVQSSEEYIQLLKKLIRSPSIPHQYWLTLQYLLKHFFKLSQTSSKNLLNARVLSELFSPLLFRFPAASSENTEHLIKIIEILISTEWNERQPAPALPPKPPKPTTVANNGM | binding result [8]: no binding
